Experimental data published in the Human Domainome abundance scans (Beltran et al. 2025).
± gives the uncertainty stated by the source.

B1: Zinc finger MYM-type protein 3, residues 589 to 668; numbered along this chain, Q14202 (parent)
chain: LSCHYCHSLFSGKPEVLDWQDQVFQFCCRDCCEDFKRLRGVVSQCEHCRQEKLLHEKLRFSGVEKSFCSEGCVLLYKQDF

Variants of: B1
Experiment: abundance fitness (aPCA) (normalised: wild type 0, dead -1); higher = more abundant; growth selection in yeast, the domain comes from the species named
Details: Homo sapiens

Variant	abundance fitness
LSCHYCHSLFSGKPEVLDWQDQVFQFCCRDCCEDFKRLRGVVSQCEHCRQEKLLHCKLRFSGVEKSFCSEGCVLLYKQDF [E56C]	-0.041 ± 0.32
LSCHYCHSLFSGKPEVLDWQDQVFQFCCRDCCEDFKRLRGVVSQCEHCRQEKLLHRKLRFSGVEKSFCSEGCVLLYKQDF [E56R]	-0.006 ± 0.084
LSCHYCHSLFSGKPEVLDWQDQVFQFCCRDCCEDFKRLRGVVSQCEHCRQEKLLHPKLRFSGVEKSFCSEGCVLLYKQDF [E56P]	-0.288 ± 0.26
LSCHYCHSLFSGKPEVLDWQDQVFQFCCRDCCEDFKRLRGVVSQCEHCRQEKLLHVKLRFSGVEKSFCSEGCVLLYKQDF [E56V]	0.548 ± 0.082
LSCHYCHSLFSGKPEVLDWQDQVFQFCCRDCCEDFKRLRGVVSQCEHCRQEKLLHHKLRFSGVEKSFCSEGCVLLYKQDF [E56H]	-0.161 ± 0.32
LSCHYCHSLFSGKPEVLDWQDQVFQFCCRDCCEDFKRLRGVVSQCEHCRQEKLLHQKLRFSGVEKSFCSEGCVLLYKQDF [E56Q]	-0.112 ± 0.14
LSCHYCHSLFSGKPEVLDWQDQVFQFCCRDCCEDFKRLRGVVSQCEHCRQEKLLHLKLRFSGVEKSFCSEGCVLLYKQDF [E56L]	0.131 ± 0.12
LSCHYCHSLFSGKPEVLDWQDQVFQFCCRDCCEDFKRLRGVVSQCEHCRQEKLLHMKLRFSGVEKSFCSEGCVLLYKQDF [E56M]	-0.22 ± 0.22
LSCHYCHSLFSGKPEVLDWQDQVFQFCCRDCCEDFKRLRGVVSQCEHCRQEKLLHGKLRFSGVEKSFCSEGCVLLYKQDF [E56G]	-0.47 ± 0.11
LSCHYCHSLFSGKPEVLDWQDQVFQFCCRDCCEDFKRLRGVVSQCEHCRQEKLLHFKLRFSGVEKSFCSEGCVLLYKQDF [E56F]	0.467 ± 0.23
LSCHYCHSLFSGKPEVLDWQDQVFQFCCRDCCEDFKRLRGVVSQCEHCRQEKLLHYKLRFSGVEKSFCSEGCVLLYKQDF [E56Y]	-0.01 ± 0.5
LSCHYCHSLFSGKPEVLDWQDQVFQFCCRDCCEDFKRLRGVVSQCEHCRQEKLLHTKLRFSGVEKSFCSEGCVLLYKQDF [E56T]	-0.091 ± 0.29
LSCHYCHSLFSGKPEVLDWQDQVFQFCCRDCCEDFKRLRGVVSQCEHCRQEKLLHSKLRFSGVEKSFCSEGCVLLYKQDF [E56S]	-0.299 ± 0.16
LSCHYCHSLFSGKPEVLDWQDQVFQFCCRDCCEDFKRLRGVVSQCEHCRQEKLLHETLRFSGVEKSFCSEGCVLLYKQDF [K57T]	0.05 ± 0.2
LSCHYCHSLFSGKPEVLDWQDQVFQFCCRDCCEDFKRLRGVVSQCEHCRQEKLLHEQLRFSGVEKSFCSEGCVLLYKQDF [K57Q]	-0.131 ± 0.14
LSCHYCHSLFSGKPEVLDWQDQVFQFCCRDCCEDFKRLRGVVSQCEHCRQEKLLHECLRFSGVEKSFCSEGCVLLYKQDF [K57C]	-0.433 ± 0.41
LSCHYCHSLFSGKPEVLDWQDQVFQFCCRDCCEDFKRLRGVVSQCEHCRQEKLLHEVLRFSGVEKSFCSEGCVLLYKQDF [K57V]	-0.192 ± 0.12

Variant	abundance fitness
LSCHYCHSLFSGKPEVLDWQDQVFQFCCRDCCEDFKRLRGVVSQCEHCRQEKLLHEALRFSGVEKSFCSEGCVLLYKQDF [K57A]	-0.487 ± 0.14
LSCHYCHSLFSGKPEVLDWQDQVFQFCCRDCCEDFKRLRGVVSQCEHCRQEKLLHEGLRFSGVEKSFCSEGCVLLYKQDF [K57G]	-0.493 ± 0.11
LSCHYCHSLFSGKPEVLDWQDQVFQFCCRDCCEDFKRLRGVVSQCEHCRQEKLLHESLRFSGVEKSFCSEGCVLLYKQDF [K57S]	-0.361 ± 0.15
LSCHYCHSLFSGKPEVLDWQDQVFQFCCRDCCEDFKRLRGVVSQCEHCRQEKLLHEDLRFSGVEKSFCSEGCVLLYKQDF [K57D]	0.159 ± 0.37
LSCHYCHSLFSGKPEVLDWQDQVFQFCCRDCCEDFKRLRGVVSQCEHCRQEKLLHENLRFSGVEKSFCSEGCVLLYKQDF [K57N]	-0.237 ± 0.23
LSCHYCHSLFSGKPEVLDWQDQVFQFCCRDCCEDFKRLRGVVSQCEHCRQEKLLHEILRFSGVEKSFCSEGCVLLYKQDF [K57I]	0.297 ± 0.17
LSCHYCHSLFSGKPEVLDWQDQVFQFCCRDCCEDFKRLRGVVSQCEHCRQEKLLHEWLRFSGVEKSFCSEGCVLLYKQDF [K57W]	-0.756 ± 0.2
LSCHYCHSLFSGKPEVLDWQDQVFQFCCRDCCEDFKRLRGVVSQCEHCRQEKLLHERLRFSGVEKSFCSEGCVLLYKQDF [K57R]	0.092 ± 0.086
LSCHYCHSLFSGKPEVLDWQDQVFQFCCRDCCEDFKRLRGVVSQCEHCRQEKLLHEPLRFSGVEKSFCSEGCVLLYKQDF [K57P]	-0.804 ± 0.26
LSCHYCHSLFSGKPEVLDWQDQVFQFCCRDCCEDFKRLRGVVSQCEHCRQEKLLHELLRFSGVEKSFCSEGCVLLYKQDF [K57L]	-0.016 ± 0.15
LSCHYCHSLFSGKPEVLDWQDQVFQFCCRDCCEDFKRLRGVVSQCEHCRQEKLLHEELRFSGVEKSFCSEGCVLLYKQDF [K57E]	-0.256 ± 0.17
LSCHYCHSLFSGKPEVLDWQDQVFQFCCRDCCEDFKRLRGVVSQCEHCRQEKLLHEFLRFSGVEKSFCSEGCVLLYKQDF [K57F]	-0.16 ± 0.41
LSCHYCHSLFSGKPEVLDWQDQVFQFCCRDCCEDFKRLRGVVSQCEHCRQEKLLHEKCRFSGVEKSFCSEGCVLLYKQDF [L58C]	-0.179 ± 0.28
LSCHYCHSLFSGKPEVLDWQDQVFQFCCRDCCEDFKRLRGVVSQCEHCRQEKLLHEKARFSGVEKSFCSEGCVLLYKQDF [L58A]	0.158 ± 0.089
LSCHYCHSLFSGKPEVLDWQDQVFQFCCRDCCEDFKRLRGVVSQCEHCRQEKELHEKLRFSGVEKSFCSEGCVLLYKQDF [L53E]	0.064 ± 0.14
LSCHYCHSLFSGKPEVLDWQDQVFQFCCRDCCEDFKRLRGVVSQCEHCRQEKRLHEKLRFSGVEKSFCSEGCVLLYKQDF [L53R]	-0.327 ± 0.11
LSCHYCHSLFSGKPEVLDWQDQVFQFCCRDCCEDFKRLRGVVSQCEHCRQEKSLHEKLRFSGVEKSFCSEGCVLLYKQDF [L53S]	-0.154 ± 0.13
